Results from KR20240072325A (dated 2024).
Substitutions are numbered along the chain they refer to. “And” between values parts separate entries of the source, which are not always exact repeats. Identical values can stand only once.

B1: Anti-SP2에서 발현된 Fv-변이체 (expressed Fv-variant of Anti-SP2, fusion protein with sfGFP and His-tag) (other)
chain: EVQLVESAAEVRRPGASVKITCKASGYSFSTYGIQWMRQAPGQRPEWLGWIHAGTGGTKYSRKFQGRITITRDTSANTVYLDLNSLTSEDTAVYYCARCLRQAGTADDVWGQGTTVTVSS
B2: Anti-SP1에서 발현된 Fv-변이체 (expressed Fv-variant of Anti-SP1, fusion protein with sfGFP and His-tag) (other)
chain: B1 chain with C99G, L100R, R101T, Q102T, A103G, G104N, T105D, A106R, D107P, V109Y

Molecular target: SARS-CoV-1 스파이크 단백질 (SARS-CoV-1 spike protein, SP) (SARS-CoV-1, UniProt P59594 14-1195)

Binder	Kd
B1	16.2 nM and 42.2 nM
B2	41.7 nM and 14.1 nM
